Data set [1] addresses T1, Cox13 (Saccharomyces cerevisiae, UniProt P32799).
T1 construct: 15 kDa; homodimer
T1 sequence (P32799 1-129): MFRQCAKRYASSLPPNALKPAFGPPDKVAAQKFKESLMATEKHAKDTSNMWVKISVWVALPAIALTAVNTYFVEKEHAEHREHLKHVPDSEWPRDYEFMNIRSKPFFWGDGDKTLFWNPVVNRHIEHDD
Briefly: 1H-15N HSQC NMR titration (chemical shift perturbation, global fit). The data set is classed as binding.

The test system of data set [2] is T2, Cox13Δ-CytcO.
T2 construct: gene COX1; Complex IV lacking subunit Cox13, Flag-tag on Cox6, purified from yeast membranes in DDM; ATP site not assigned
In words: oxygen consumption (Clark electrode), activity vs ATP. Particulars: tentative fit of stimulation of turnover; yeast cyt. c 50 μM, ascorbate, TMPD, 0.035% DDM, KPi; allosteric, more than one site. Type of data set: biochemical, Saccharomyces cerevisiae.

Data set [3] deals with Cox13Δ-CytcO: S. cerevisiae cytochrome c oxidase lacking Cox13, with a Flag-tag on Cox6 (S. cerevisiae) (UniProt P00401).
Cox13Δ-CytcO: S. cerevisiae cytochrome c oxidase lacking Cox13, with a Flag-tag on Cox6 (S. cerevisiae), sequence (P00401 whole entry, looked up, stated change not applied): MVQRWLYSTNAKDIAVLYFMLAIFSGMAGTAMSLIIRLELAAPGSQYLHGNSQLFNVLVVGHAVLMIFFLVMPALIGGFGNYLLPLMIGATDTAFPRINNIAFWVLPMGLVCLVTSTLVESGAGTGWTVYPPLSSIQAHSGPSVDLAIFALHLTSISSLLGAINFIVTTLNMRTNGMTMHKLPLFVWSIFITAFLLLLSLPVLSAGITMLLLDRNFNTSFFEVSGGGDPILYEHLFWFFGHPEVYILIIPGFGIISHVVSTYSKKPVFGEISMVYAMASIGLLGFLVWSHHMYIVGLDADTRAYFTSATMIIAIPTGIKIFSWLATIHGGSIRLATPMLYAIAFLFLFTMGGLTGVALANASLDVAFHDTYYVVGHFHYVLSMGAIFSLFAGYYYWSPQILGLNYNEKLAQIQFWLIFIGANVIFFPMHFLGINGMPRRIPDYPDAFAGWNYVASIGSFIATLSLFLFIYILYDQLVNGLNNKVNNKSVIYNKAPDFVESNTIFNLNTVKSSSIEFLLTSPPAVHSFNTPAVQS
The target in data set [4] is wildtype S. cerevisiae cytochrome c oxidase (CytcO, Complex IV) with a 6xHis-tag on Cox13 (S. cerevisiae) (UniProt P00401).
wildtype S. cerevisiae cytochrome c oxidase (CytcO, Complex IV) with a 6xHis-tag on Cox13 (S. cerevisiae), sequence (P00401 whole entry, looked up, one chain of several): as the sequence (P00401 whole entry, looked up, stated change not applied) above
Data set [5] deals with the molecule itself. Briefly: SEC; Superdex 200 10/300; 20 mM NaPi pH 6.5, 50 mM L-Arg, 50 mM L-Glu, 1 mM DTT, 3 mM DPC; Cox13-DPC complex elutes in a single peak of apparent mass 55-60 kDa. For orientation: Size exclusion chromatography separates by hydrodynamic size, large species first.

`Nc1ncnc2c1ncn2[C@@H]1O[C@H](COP(=O)(O)OP(=O)(O)O)[C@@H](O)[C@H]1O` [ADP]: the Kd (in general, the free concentration of one partner at which half of the binding sites on the other are occupied at equilibrium, for simple one-to-one binding) in data set [1] turned out to be 17 ± 2 mM.

Turning to `Nc1ncnc2c1ncn2[C@@H]1O[C@H](COP(=O)(O)OP(=O)(O)OP(=O)(O)O)[C@@H](O)[C@H]1O` [ATP], the dissociation constant Kd result in data set [2] is “ATP binds less tight (with tentative Kd in the mM range”; in data set [1], 15 ± 2 mM.

As to “yeast cytochrome c (from UniProt P00044 1-109) (natural protein)”, in data set [3], the Km^1 (low Km) for cyt. c, oxygen-consumption turnover of purified Cox13Δ-CytcO against added yeast cyt. c, no ATP was 0.2 µM; the Km^2 (high Km) for cyt. c, oxygen-consumption turnover of purified Cox13Δ-CytcO against added yeast cyt. c, no ATP came out at 20 µM; the single Km for cyt. c, oxygen-consumption turnover of purified Cox13Δ-CytcO against added yeast cyt. c, with 5 mM ATP was found to be 5.8 µM. For the same molecule, in data set [4], the Km^1 (low Km) for cyt. c, oxygen-consumption turnover of purified CytcO against added yeast cyt. c, no ATP is 1.3 µM; the Km^2 (high Km) for cyt. c, oxygen-consumption turnover of purified CytcO against added yeast cyt. c, no ATP was found to be 20 µM; the single Km for cyt. c, oxygen-consumption turnover of purified CytcO against added yeast cyt. c, with 5 mM ATP was 8.6 µM.

B1: Cox13 (cytochrome c oxidase subunit Cox13) from S. cerevisiae, refolded in DPC micelles (natural protein)
chain: ASSLPPNALKPAFGPPDKVAAQKFKESLMATEKHAKDTSNMWVKISVWVALPAIALTAVNTYFVEKEHAEHREHLKHVPDSEWPRDYEFMNIRSKPFFWGDGDKTLFWNPVVNRHIEHDD
notes: Cox13, cytochrome c oxidase subunit of S. cerevisiae; the gene was cloned into pET-28a; predicted mass 15 kDa; residues assigned up to I125; Isotope-labelled (15N and/or 13C) or unlabelled, depending on the experiment; also called Cox13-DPC complex; CoxVIa in mammals (homolog)
Consider B1, for which, in data set [5], the stoichiometry N (usually a count of units in the complex or per binding partner) turned out to be 2.

The values are drawn from PMC8111780, “NMR structural analysis of the yeast cytochrome c oxidase subunit Cox13 and its interaction with ATP” (BMC Biology, 2021).
